The values below come from paper PMC3896602 (mAbs, 2013).

Holding throughout (test): SPR
For orientation: SPR reads the build-up and loss of mass on a sensor chip optically.

In one assay the target is human CXCL13 (Homo sapiens, UniProt O43927).
The target of assay [1] is IT1-Fc-3B4 scFv-Fc-scFv bispecific molecule (human).
In assay [2] the target is IT1-Fc-E10 scFv-Fc-scFv bispecific molecule (human).
Assay [3] has as its target IT1-Fc-A1 scFv-Fc-scFv bispecific molecule (human).

B1: anti-CXCL13 3B4 scFv-Fc fusion protein (Fc fusion, human)
VH: QVQLVQSGAEVKKPGSSVKVSCKASGGTFSSYAISWVRQAPGQGLEWMGGIIPIFGTANYAQKFQGRVTITADESTSTAYMELSSLRSEDTAVYYCAREPDYYDSSGYYPIDAFDIWGQGTTVTVSS
VL: QSALTQPASVSASPGQSITISCTGTSSDVGAYDWVSWYQQHPGKAPKLLIFDVNNRPSGVSHRFSGSKSGNTASLTISGLQAEDEADYYCSSYTRRDTYVFGTGTKVTVL
Broadly, the Kd is the concentration at which binding is half-saturated. Higher therefore signals weaker binding. As a reminder, the koff is the rate constant with which the complex falls apart. Lower therefore signals a long-lived complex. The kon is the rate constant with which the complex forms. High values mean faster complex formation, low ones slower complex formation. For the molecule B1, in the assay with human CXCL13, the Kd came out at 372 pM, the off-rate (koff) turned out to be 0.0121 s⁻¹ and the kon came to 3.24e+07 M⁻¹ s⁻¹.

B2: anti-CXCL13 A01 scFv-Fc fusion protein (Fc fusion, human)
VH: QVQLVQSGAEVKKPGSSVKVSCKASGGTFSSYAISWVRQAPGQGLEWMGGIIPIFGTANYAQKFQGRVTITADESTSTAYMELSSLRSEDTAVYYCAREPDYYDSSGYYPIDAFDIWGQGTTVTVSS
VL: QSALTQPASVSASPGQSITISCTGTSSDVGAYDWVSWYQQHPGKAPKLLIFDVNNRPSGVSHRFSGSKSGNTASLTISGLQAEDEADYYCASTTLFDTYVFGTGTKVTVL
Regarding B2, in the assay with human CXCL13, the Kd came out at 29.8 pM, the koff was 0.0003 s⁻¹ and the kon was 9.28e+06 M⁻¹ s⁻¹.

B3: anti-CXCL13 H06 scFv-Fc fusion protein (Fc fusion, human)
VH: QVQLVQSGAEVKKPGSSVKVSCKASGGTFSSYAISWVRQAPGQGLEWMGGIIPIFGTANYAQKFQGRVTITADESTSTAYMELSSLRSEDTAVYYCAREPDYYDSSGYYPIDAFDIWGQGTTVTVSS
VL: QSALTQPASVSASPGQSITISCTGTSSDVGAYDWVSWYQQHPGKAPKLLIFDVNNRPSGVSHRFSGSKSGNTASLTISGLQAEDEADYYCASVVVTDTYVFGTGTKVTVL
Take B3: in the assay with human CXCL13, the Kd amounted to 37.6 pM, the off-rate constant (koff) was 0.0003 s⁻¹ and the kon is 7.54e+06 M⁻¹ s⁻¹.

B4: anti-CXCL13 E10 scFv-Fc fusion protein (Fc fusion, human)
VH: QVQLVQSGAEVKKPGSSVKVSCKASGGTFSSYAISWVRQAPGQGLEWMGGIIPIFGTANYAQKFQGRVTITADESTSTAYMELSSLRSEDTAVYYCAREPDYYDSSGYYPIDAFDIWGQGTTVTVSS
VL: QSALTQPASVSASPGQSITISCTGTSSDVGAYDWVSWYQQHPGKAPKLLIFDVNNRPSGVSHRFSGSKSGNTASLTISGLQAEDEADYYCASATLLDTYVFGTGTKVTVL
In the assay with human CXCL13, B4 returned a Kd of 45.4 pM, a koff of 0.0005 s⁻¹ and a kon of 9.81e+06 M⁻¹ s⁻¹.

B5: anti-CXCL13 C04 scFv-Fc fusion protein (Fc fusion, human)
VH: QVQLVQSGAEVKKPGSSVKVSCKASGGTFSSYAISWVRQAPGQGLEWMGGIIPIFGTANYAQKFQGRVTITADESTSTAYMELSSLRSEDTAVYYCAREPDYYDSSGYYPIDAFDIWGQGTTVTVSS
VL: QSALTQPASVSASPGQSITISCTGTSSDVGAYDWVSWYQQHPGKAPKLLIFDVNNRPSGVSHRFSGSKSGNTASLTISGLQAEDEADYYCSSAGIISVYVFGTGTKVTVL
In the assay with human CXCL13, B5 showed a Kd of 46 pM, a koff of 0.0003 s⁻¹ and a kon of 6.22e+06 M⁻¹ s⁻¹.

B6: anti-CXCL13 H08 scFv-Fc fusion protein (Fc fusion, human)
VH: QVQLVQSGAEVKKPGSSVKVSCKASGGTFSSYAISWVRQAPGQGLEWMGGIIPIFGTANYAQKFQGRVTITADESTSTAYMELSSLRSEDTAVYYCAREPDYYDSSGYYPIDAFDIWGQGTTVTVSS
VL: QSALTQPASVSASPGQSITISCTGTSSDVGAYDWVSWYQQHPGKAPKLLIFDVNNRPSGVSHRFSGSKSGNTASLTISGLQAEDEADYYCTSVTVEDTYVFGTGTKVTVL
Consider B6, for which, in the assay with human CXCL13, the Kd came out at 19.9 pM, the koff came to 0.0002 s⁻¹ and the kon is 8.53e+06 M⁻¹ s⁻¹.

B7: anti-CXCL13 C07 scFv-Fc fusion protein (Fc fusion, human)
VH: QVQLVQSGAEVKKPGSSVKVSCKASGGTFSSYAISWVRQAPGQGLEWMGGIIPIFGTANYAQKFQGRVTITADESTSTAYMELSSLRSEDTAVYYCAREPDYYDSSGYYPIDAFDIWGQGTTVTVSS
VL: QSALTQPASVSASPGQSITISCTGTSSDVGAYDWVSWYQQHPGKAPKLLIFDVNNRPSGVSHRFSGSKSGNTASLTISGLQAEDEADYYCSSPTFTEPYVFGTGTKVTVL
In the assay with human CXCL13, B7 returned a Kd of 27.9 pM, a koff of 0.0002 s⁻¹ and a kon of 8.03e+06 M⁻¹ s⁻¹.

B8: human CXCL13 (natural protein)
chain: VLEVYYTSLRCRCVQESSVFIPRRFIDRIQILPRGNGCPRKEIIVWKKNKSIVCVDPQAEWIQRMMEVLRKRSSSTLPVPVFKRKIP
In the case of B8, the Kd in assay [1] worked out at 800 pM; in assay [2], 67 pM; in assay [3] it was 10 pM.
